# Laboratory results reported in patent US20130096072A1 (Genentech, published 2013).
# Bridges are numbered along the chain shown (N, C = ends). Where no end group is shown, it is not given here. [ ]: non-standard residue; d: D form. Hyp = O=C(O)[C@@H]1C[C@@H](O)CN1
# B1: IVGG.14 W8A variant (peptide)
# peptide: IVGGYPWAMDV-NH2
# B2: IVGG.14 P6A variant (peptide)
# peptide: IVGGYAWWMDV-NH2
# B3: ZAP.03 (cyclic 15-mer synthetic peptide) (peptide)
# peptide: IIGGCPYWMDREECI-NH2
# modifications: disulfide 5-14
# notes: also called ZAP2.3; ZAP.-3
# B4: IVdG.14 peptide (peptide)
# peptide: IV[dD]GYPWWMDV-NH2
# notes: Printed as I V d G Y P W W M D V, d = D-aspartic acid
# B5: IVhyP.14 peptide (peptide)
# peptide: IVGGY[Hyp]WWMDV-NH2
# notes: Printed as I V G G Y hyP W W M D V
# B6: IIhyP.14 peptide (peptide)
# peptide: IIGGY[Hyp]WWMDV-NH2
# notes: Printed as I I G G Y hyP W W M D V
# B7: ZAP.91 phage clone (ZAPtide Library) (peptide)
# chain: IVGGYPVYFLN
# modifications: not fully specified; also: fused before M13 gene VIII coat protein, linker not given here
# notes: not shown: M13 gene VIII coat protein fused after the peptide
# B8: ZAP.54 phage clone (ZAPtide Library) (peptide)
# chain: IVGGLDVEYEL
# modifications: not fully specified
# notes: as for B7
# B9: ZAP.04 phage clone (ZAPtide Library) (peptide)
# chain: IVGGSDFPWWV
# modifications: not fully specified
# notes: as for B7
# B10: ZAP.13 phage clone (ZAPtide Library) (peptide)
# chain: IVGGYPWWITG
# modifications: not fully specified
# notes: as for B7
# B11: ZAP.50 phage clone (ZAPtide Library) (peptide)
# chain: IVGGDYYWVVQ
# modifications: not fully specified
# notes: as for B7
# B12: ZAP.65 phage clone (ZAPtide Library) (peptide)
# chain: IVGGEPAYWYW
# modifications: not fully specified; also: fused before M13 gene VIII coat protein, linker not given here
# notes: as for B7
# B13: ZAP.24 phage clone (ZAPtide Library) (peptide)
# chain: IVGGCKRSYWE
# modifications: not fully specified
# notes: as for B7
# B14: ZAP.67 phage clone (ZAPtide Library) (peptide)
# chain: IVGGPHKAFLL
# modifications: not fully specified; also: fused before M13 gene VIII coat protein, linker not given here
# notes: as for B7
# B15: ZAP.01a phage clone (ZAPtide Library) (peptide)
# chain: IVGGVRCWVSN
# modifications: not fully specified
# notes: Not the 15-mer ZAP.01; not shown: M13 gene VIII coat protein fused after the peptide
# B16: ZAP.45 phage clone (ZAPtide Library) (peptide)
# chain: IVGGKWQRKRV
# modifications: not fully specified
# notes: as for B7
# B17: ZAP.06 phage clone (ZAPtide Library) (peptide)
# chain: IVGGDGMPWWI
# modifications: not fully specified
# notes: as for B7
# B18: ZAP.52 phage clone (ZAPtide Library) (peptide)
# chain: IVGGLWEMWVT
# modifications: not fully specified
# notes: as for B7
# B19: ZAP.53 phage clone (ZAPtide Library) (peptide)
# chain: IVGGYPWWVDV
# modifications: not fully specified
# notes: as for B7
# B20: ZAP.32 phage clone (ZAPtide Library) (peptide)
# chain: IVGGEPVWYVW
# modifications: not fully specified
# notes: as for B7
# B21: ZAP.39 phage clone (ZAPtide Library) (peptide)
# chain: IVGGSACLIAM
# modifications: not fully specified
# notes: as for B7
# B22: IVGG.14 phage clone (ZAPtide Library) (peptide)
# chain: IVGGYPWWMDV
# modifications: not fully specified
# notes: as for B7
# B23: ZAP.25 phage clone (ZAPtide Library) (peptide)
# chain: IVGGNKIWSVS
# modifications: not fully specified
# notes: as for B7
# B24: ZAP.18 phage clone (ZAPtide Library) (peptide)
# chain: IVGGFVFWCDQ
# modifications: not fully specified
# notes: as for B7
# B25: ZAP.11 phage clone (ZAPtide Library) (peptide)
# chain: IVGGHPMSPFS
# modifications: not fully specified
# notes: as for B7
# B26: ZAP.15 phage clone (ZAPtide Library) (peptide)
# chain: IVGGDPWWFVS
# modifications: not fully specified
# notes: as for B7
# B27: ZAP.43 phage clone (ZAPtide Library) (peptide)
# chain: IVGGDPVYVLY
# modifications: not fully specified
# notes: as for B7
# B28: ZAP.30 phage clone (ZAPtide Library) (peptide)
# chain: IVGGYPAWMEY
# modifications: not fully specified
# notes: as for B7
# B29: ZAP.09 phage clone (ZAPtide Library) (peptide)
# chain: H-IVGGDYWWVPI
# modifications: not fully specified
# notes: as for B7
# B30: ZAP.03 phage clone of Table 4B (ZAPtide Library, SEQ ID NO:129) (peptide)
# chain: IVGGDFYSSYW
# modifications: not fully specified
# notes: as for B7
# B31: ZAP.63 phage clone (ZAPtide Library) (peptide)
# chain: IVGGMRLCGYI
# modifications: not fully specified; also: fused before M13 gene VIII coat protein, linker not given here
# notes: as for B7
# B32: ZAP.29 phage clone (ZAPtide Library) (peptide)
# chain: IVGGTRCNDWI
# modifications: not fully specified
# notes: as for B7
# B33: ZAP.01 (linear 15-mer synthetic peptide) (peptide)
# peptide: IIGGDPYWVPHPGDA-NH2
# B34: IVDG.14 peptide (peptide)
# peptide: IVDGYPWWMDV-NH2
# B35: ZAP.03S peptide (peptide)
# peptide: IIGGSPYWMDREESI-NH2
# notes: ZAP.03 with both cysteines changed to serine; no disulfide
# B36: IVGD.14 peptide (peptide)
# peptide: IVGDYPWWMDV-NH2
# B37: IVDD.14 peptide (peptide)
# peptide: IVDDYPWWMDV-NH2
# Tested on: IVGG.147A peptide
# Assay: not given
row,Molecule,"initial rate of hydrolysis (Vi) of Ile-Pro-Arg-pNA, 100 nM enzyme, 2 mM substrate"
1,prethrombin-2,the initial rate of substrate hydrolysis (Vi) for both prethrombin-2 and Protein C zymogens significantly increased upon titration of IVGG.147A into the reaction
2,Protein C (zymogen),the initial rate of substrate hydrolysis (Vi) for both prethrombin-2 and Protein C zymogens significantly increased upon titration of IVGG.147A into the reaction

# Target: T1, scHGF β-chain (zymogen-like HGF β, residues Asn479 to Ser728, R494E, C-terminal His-tag) (human, UniProt P14210 479-728)
# Assay: cell-based or functional assay
# T1 sequence (P14210 479-728 R494E): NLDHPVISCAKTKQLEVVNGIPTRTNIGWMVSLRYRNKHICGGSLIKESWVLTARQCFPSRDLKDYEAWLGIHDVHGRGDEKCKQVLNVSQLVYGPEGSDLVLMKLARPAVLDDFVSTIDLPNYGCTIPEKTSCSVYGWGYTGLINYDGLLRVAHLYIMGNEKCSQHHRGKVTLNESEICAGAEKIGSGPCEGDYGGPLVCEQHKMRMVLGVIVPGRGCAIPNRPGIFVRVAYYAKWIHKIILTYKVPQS
row,Molecule,"activity (alanine scanning of the YPWWM turn motif), loss against IVGG.14 [fold]"
1,B1,10
2,B2,25

# Target: scHGF (non-cleavable form of full-length pro-HGF with a mutated cleavage site) (human, UniProt P14210 32-728)
# Assay: cell-based or functional assay
# Chain of scHGF (non-cleavable form of full-length pro-HGF with a mutated cleavage site) (P14210 32-728 limits assumed, change not shown): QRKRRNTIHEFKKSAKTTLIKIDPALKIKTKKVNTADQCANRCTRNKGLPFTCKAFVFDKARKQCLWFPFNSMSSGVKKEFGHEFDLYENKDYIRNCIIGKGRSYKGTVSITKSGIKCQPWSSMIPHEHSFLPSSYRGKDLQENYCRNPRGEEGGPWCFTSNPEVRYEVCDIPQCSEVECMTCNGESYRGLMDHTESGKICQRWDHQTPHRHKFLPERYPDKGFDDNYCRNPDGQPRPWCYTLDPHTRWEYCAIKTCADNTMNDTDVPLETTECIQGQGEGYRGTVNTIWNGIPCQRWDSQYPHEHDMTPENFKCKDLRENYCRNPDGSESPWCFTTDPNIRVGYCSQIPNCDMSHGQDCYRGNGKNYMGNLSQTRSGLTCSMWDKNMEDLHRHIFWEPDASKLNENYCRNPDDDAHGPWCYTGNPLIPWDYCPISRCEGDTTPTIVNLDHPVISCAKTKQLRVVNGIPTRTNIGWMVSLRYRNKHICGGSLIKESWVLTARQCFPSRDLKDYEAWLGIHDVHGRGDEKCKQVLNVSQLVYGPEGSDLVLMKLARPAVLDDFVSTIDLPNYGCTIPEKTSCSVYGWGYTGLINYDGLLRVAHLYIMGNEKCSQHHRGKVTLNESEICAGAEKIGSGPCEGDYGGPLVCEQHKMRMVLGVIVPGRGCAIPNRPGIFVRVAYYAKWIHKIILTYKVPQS
Molecule,"EC50, HeLa cell migration in an in vitro wound closure assay [µM]","EC50, cell survival of BxPC3 cells during serum starvation [µM]","EC50, BxPC-3 cell survival assay, peptide titrated with scHGF [µM]"
B3,0.06,0.4,–
B4,–,–,~20

# Target: T1, scHGF β-chain (zymogen-like HGF β, …)
# Assay: BLI scHGF β activation/Met binding assay
Molecule,fold enhancement relative to IVGG.14 [fold],fold improvement relative to IVGG.14 [fold],fold better than IVGG.14 [fold],fold better than the previously described peptide activators [fold],fold better than peptides previously described [fold]
B5,2,–,–,–,–
B3,–,~100,–,–,–
B6,–,–,7,> 400,–
B4,–,–,–,–,100

# Target: T1, scHGF β-chain (zymogen-like HGF β, …)
# Assay: phage panning against scHGF β (4 rounds) and phage ELISA
# Description: The pfam database (Finn, R. D. et al. (2010) Nucleic Acids Res 38: D211-22) was used to derive a consensus sequence for trypsin/chymotrypsin-like serine proteases and identify the N-terminal IVGG motif. Peptide libraries were synthesized as fusions to the gene VIII coat protein of M13 phage and panned against scHGF β as previously described (Tonikian, R. et al. (2007) Nat Protoc 2: 1368-86; Sidhu, S. S. et al. (2000) Methods Enzymol. 328:333-63). […] Single phage clones were picked, grown overnight and a standard phage ELISA was used to verify target specific binding. Once the IVGG.14 sequence was identified, soft randomization on gene VIII was performed on positions X₂-X₁₁.
row,Molecule,binding result
1,B7,binds
2,B8,binds
3,B9,binds
4,B10,binds
5,B11,binds
6,B12,binds
7,B13,binds
8,B14,binds
9,B15,binds
10,B16,binds
11,B17,binds
12,B18,binds
13,B19,binds
14,B20,binds
15,B21,binds
16,B22,binds
17,B23,binds
18,B24,binds
19,B25,binds
20,B26,binds
21,B27,binds
22,B28,binds
23,B29,binds
24,B30,binds
25,B31,binds
26,B32,binds

# Target: T1, scHGF β-chain (zymogen-like HGF β, …)
# Assay: BLI (OctetRed) scHGF β activation/Met binding assay: peptide titrated into 0.5 µM scHGF β over biotinylated Met Sema/PSI on streptavidin tips; steady-state single-site fit
# Experimental: (§1) Met binding assays were carried out utilizing the OctetRed™ biolayer interferometry instrument (ForteBio, Inc.) as reported previously (Landgraf, K. E. et al. (2010) J Biol Chem 285: 40362-72). Biotinylated Met ECD (Sema/PSI-AviTag) was captured on the surface of streptavidin optical sensor tips (SA biosensors, ForteBio, Inc.), and transferred into buffer containing 0.5 μM scHGF β-chain variants in the presence of increasing concentration of indicated peptides. Association and dissociation reactions were monitored to ensure reversible binding between scHGF β and Met. Binding was quantified using the steady-state levels of surface response from the association reaction. Equilibrium constants were derived by least squares fitting of the titration data to a single-site binding equation. Errors reported are ±stdev of n=3 independent experiments.
# Based on the finding that the consensus ZAPs contain features consistent with binding and inserting into the activation pocket, several related peptides were synthesized and utilized in a previously established scHGF β activation assay to assess their affinities and ability to active Met binding (Landgraf, K. E. et al. (2010) J Biol Chem 285: 40362-72). Since scHGF β can only weakly interact with the Met Sema-PSI domain compared to the active HGF β form, biolayer interferometry was used in the activation assay to measure the ability of a peptide to directly enhance the binding affinity of scHGF β to a streptavidin sensor surface coated with biotinylated Met (Landgraf, K. E. et al. (2010) J Biol Chem 285: 40362-72). Thus, titration of an activator peptide should result in a significant increase in the surface response signal due to enhanced scHGF β binding to Met.
row,Molecule,Kd [µM]
1,B33,6
2,B5,14
3,B3,0.3
4,B6,5
5,B34,85
6,B4,21
7,B35,59

# Target: T1, scHGF β-chain (zymogen-like HGF β, …)
# Assay: biolayer interferometry: biotinylated Met Sema/PSI on streptavidin tips, 0.5 µM scHGF β in solution, peptide titrated; steady-state surface response of scHGF β binding to Met
# Experimental: as §1
# Based on the finding that the consensus ZAPs contain features consistent with binding and inserting into the activation pocket, several related peptides were synthesized and utilized in a previously established scHGF β activation assay to assess their affinities and ability to active Met binding (Landgraf, K. E. et al. (2010) J Biol Chem 285: 40362-72). […]
row,Molecule,binding result
1,B36,no binding
2,B37,no binding (tested: about 125 µM)
